According to paper PMC12290011, “Pseudomonadal itaconate degradation gene cluster encodes enzymes for methylsuccinate utilization” (Communications Biology, 2025):

Key:
C[C@H](CC(=O)O)C(=O)O = assay: purified protein; settings: 1 mM succinyl-CoA, pH 7.0, 5 mM MgCl2, 30 °C
Description: (§4) UHPLC assay of CoA-esters on P. aeruginosa itaconate CoA transferase
C=C(CC(=O)O)C(=O)O = assay: purified protein; settings: 1 mM succinyl-CoA, pH 7.0, 5 mM MgCl2, 30 °C
Description: as §4
C[C@@H](CC(=O)O)C(=O)O = assay: purified protein; settings: 1 mM succinyl-CoA, pH 7.0, 5 mM MgCl2, 30 °C
Description: as §4

[1] = molecular target: T1, P. aeruginosa MmgE/PrpD family protein, (S)-(R)-methylsuccinate isomerase (Pseudomonas aeruginosa, UniProt Q9I564); assay: coupled assay with C. necator itaconate CoA transferase, UHPLC; assay type: biochemical; settings: 2.5 mM substrate, pH 7.0, 5 mM MgCl2, 30 °C
T1 construct: gene PA0881; synthetic codon-optimized gene in pET16b, His-tagged, E. coli BL21(DE3), Ni-NTA purified
T1 sequence (Q9I564 1-450): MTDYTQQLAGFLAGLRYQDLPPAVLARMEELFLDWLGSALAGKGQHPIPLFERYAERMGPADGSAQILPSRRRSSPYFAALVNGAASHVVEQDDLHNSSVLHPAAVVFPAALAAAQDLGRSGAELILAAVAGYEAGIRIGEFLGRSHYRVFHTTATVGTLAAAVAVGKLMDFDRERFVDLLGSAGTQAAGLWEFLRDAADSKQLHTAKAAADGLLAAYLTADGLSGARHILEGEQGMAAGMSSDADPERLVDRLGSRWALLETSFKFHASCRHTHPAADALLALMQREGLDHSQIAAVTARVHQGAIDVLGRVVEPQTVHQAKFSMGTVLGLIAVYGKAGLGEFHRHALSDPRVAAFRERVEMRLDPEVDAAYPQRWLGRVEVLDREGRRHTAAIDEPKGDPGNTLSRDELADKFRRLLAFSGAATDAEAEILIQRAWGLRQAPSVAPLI

[2] = molecular target: T2, C. necator MmgE/PrpD family protein, (S)-(R)-methylsuccinate isomerase (Cupriavidus necator, UniProt Q0K3E6); assay: as above; assay type: biochemical; settings: 2.5 mM substrate, pH 7.0, 5 mM MgCl2, 30 °C
T2 construct: gene prpD2; synthetic codon-optimized gene in pET16b, His-tagged, E. coli BL21(DE3), Ni-NTA purified
T2 sequence (Q0K3E6 1-460): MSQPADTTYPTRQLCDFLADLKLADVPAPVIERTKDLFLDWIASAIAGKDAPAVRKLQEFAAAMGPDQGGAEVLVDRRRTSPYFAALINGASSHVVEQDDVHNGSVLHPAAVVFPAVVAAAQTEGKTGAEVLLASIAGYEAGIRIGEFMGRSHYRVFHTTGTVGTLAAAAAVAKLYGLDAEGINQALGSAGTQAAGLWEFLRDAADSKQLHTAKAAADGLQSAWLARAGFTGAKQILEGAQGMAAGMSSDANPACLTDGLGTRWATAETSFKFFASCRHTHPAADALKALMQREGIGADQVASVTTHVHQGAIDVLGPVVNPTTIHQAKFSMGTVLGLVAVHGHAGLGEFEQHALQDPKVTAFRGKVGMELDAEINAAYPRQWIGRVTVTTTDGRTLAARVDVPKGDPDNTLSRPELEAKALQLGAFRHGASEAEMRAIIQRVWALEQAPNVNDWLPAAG

[3] = molecular target: T3, Pa. xenovorans MmgE/PrpD family protein Bxe_B2582 (Paraburkholderia xenovorans, UniProt Q13R78); assay: as above; assay type: biochemical; settings: 2.5 mM substrate, pH 7.0, 5 mM MgCl2, 30 °C
T3 construct: pET16b, His-tagged, E. coli BL21(DE3), Ni-NTA purified
T3 sequence (Q13R78 1-494): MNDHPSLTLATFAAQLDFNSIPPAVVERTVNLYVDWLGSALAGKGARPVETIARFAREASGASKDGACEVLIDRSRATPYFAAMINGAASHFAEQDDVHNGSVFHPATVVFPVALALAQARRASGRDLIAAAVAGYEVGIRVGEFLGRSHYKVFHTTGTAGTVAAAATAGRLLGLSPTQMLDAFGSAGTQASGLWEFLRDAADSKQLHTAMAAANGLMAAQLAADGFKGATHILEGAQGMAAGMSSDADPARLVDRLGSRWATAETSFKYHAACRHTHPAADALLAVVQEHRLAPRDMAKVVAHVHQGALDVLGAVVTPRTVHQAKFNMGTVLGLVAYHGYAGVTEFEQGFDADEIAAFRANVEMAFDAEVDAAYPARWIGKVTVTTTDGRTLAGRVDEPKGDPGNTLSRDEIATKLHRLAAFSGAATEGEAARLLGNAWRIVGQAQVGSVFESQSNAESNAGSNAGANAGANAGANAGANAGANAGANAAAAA

[4] = substrate: C[C@H](CC(=O)SCCNC(=O)CCNC(=O)[C@H](O)C(C)(C)COP(=O)(O)OP(=O)(O)OC[C@H]1O[C@@H](n2cnc3c(N)ncnc32)[C@H](O)[C@@H]1OP(=O)(O)O)C(=O)O; assay: UHPLC assay of mesaconyl-CoA formation; assay type: biochemical, Pseudomonas aeruginosa; settings: 1 mM phenazine methosulfate as electron acceptor, pH 7.0, 5 mM MgCl2, 30 °C
Description: (§1) UHPLC assay of mesaconyl-CoA formation on P. aeruginosa methylsuccinyl-C4-CoA dehydrogenase

[5] = substrate: C[C@@H](CC(=O)SCCNC(=O)CCNC(=O)[C@H](O)C(C)(C)COP(=O)(O)OP(=O)(O)OC[C@H]1O[C@@H](n2cnc3c(N)ncnc32)[C@H](O)[C@@H]1OP(=O)(O)O)C(=O)O; assay: UHPLC assay of mesaconyl-CoA formation; assay type: biochemical, Pseudomonas aeruginosa; settings: 1 mM phenazine methosulfate as electron acceptor, pH 7.0, 5 mM MgCl2, 30 °C
Description: as §1

[6] = substrate: C[C@H](CC(=O)SCCNC(=O)CCNC(=O)[C@H](O)C(C)(C)COP(=O)(O)OP(=O)(O)OC[C@H]1O[C@@H](n2cnc3c(N)ncnc32)[C@H](O)[C@@H]1OP(=O)(O)O)C(=O)O; assay: UHPLC assay of mesaconyl-CoA formation; assay type: biochemical, Cupriavidus necator; settings: 1 mM phenazine methosulfate as electron acceptor, pH 7.0, 5 mM MgCl2, 30 °C
Description: (§2) UHPLC assay of mesaconyl-CoA formation on C. necator methylsuccinyl-C4-CoA dehydrogenase

[7] = substrate: C[C@@H](CC(=O)SCCNC(=O)CCNC(=O)[C@H](O)C(C)(C)COP(=O)(O)OP(=O)(O)OC[C@H]1O[C@@H](n2cnc3c(N)ncnc32)[C@H](O)[C@@H]1OP(=O)(O)O)C(=O)O; assay: UHPLC assay of mesaconyl-CoA formation; assay type: biochemical, Cupriavidus necator; settings: 1 mM phenazine methosulfate as electron acceptor, pH 7.0, 5 mM MgCl2, 30 °C
Description: as §2

purified protein = substrate: O=C(O)C[C@H](O)C(=O)O; assay: purified protein; settings: 1 mM succinyl-CoA, pH 7.0, 5 mM MgCl2, 30 °C
[8] = substrate: C=C(CC(=O)O)C(=O)O; assay: UHPLC assay of CoA-esters; assay type: biochemical, Cupriavidus necator; settings: 1 mM succinyl-CoA, pH 7.0, 5 mM MgCl2, 30 °C
Description: (§3) UHPLC assay of CoA-esters on C. necator itaconate CoA transferase

[9] = substrate: C[C@@H](CC(=O)O)C(=O)O; assay: UHPLC assay of CoA-esters; assay type: biochemical, Cupriavidus necator; settings: 1 mM succinyl-CoA, pH 7.0, 5 mM MgCl2, 30 °C
Description: as §3

[10] = substrate: O=C(O)CCCC(=O)O; assay: UHPLC assay of CoA-esters; assay type: biochemical, Cupriavidus necator; settings: 1 mM succinyl-CoA, pH 7.0, 5 mM MgCl2, 30 °C
Description: as §3

[11] = substrate: C[C@](O)(CC(=O)O)C(=O)O; assay: UHPLC assay of CoA-esters; assay type: biochemical, Cupriavidus necator; settings: 1 mM succinyl-CoA, pH 7.0, 5 mM MgCl2, 30 °C
Description: as §3

[12] = substrate: C[C@H](CC(=O)O)C(=O)O; assay: UHPLC assay of CoA-esters; assay type: biochemical, Cupriavidus necator; settings: 1 mM succinyl-CoA, pH 7.0, 5 mM MgCl2, 30 °C
Description: as §3

[13] = substrate: CC(C)(COP(=O)(O)OP(=O)(O)OC[C@H]1O[C@@H](n2cnc3c(N)ncnc32)[C@H](O)[C@@H]1OP(=O)(O)O)[C@@H](O)C(=O)NCCC(=O)NCCSC(=O)CCC(=O)O; assay: UHPLC assay of CoA-esters; assay type: biochemical, Cupriavidus necator; settings: 10 mM itaconate, pH 7.0, 5 mM MgCl2, 30 °C
Description: as §3

P. aeruginosa itaconate CoA transferase (Pseudomonas aeruginosa PAO1)
Km (C[C@H](CC(=O)O)C(=O)O): 0.6 ± 0.2 mM
Vmax (C[C@H](CC(=O)O)C(=O)O): 69.8 µmol/min/mg
kcat/Km (C[C@H](CC(=O)O)C(=O)O): 88000 M⁻¹ s⁻¹
Km (C=C(CC(=O)O)C(=O)O): 0.8 ± 0.3 mM
Vmax (C=C(CC(=O)O)C(=O)O): 73 µmol/min/mg
kcat/Km (C=C(CC(=O)O)C(=O)O): 66300 M⁻¹ s⁻¹
Km (C[C@@H](CC(=O)O)C(=O)O): 17.8 ± 8.0 mM
Vmax (C[C@@H](CC(=O)O)C(=O)O): 54.3 µmol/min/mg
kcat/Km (C[C@@H](CC(=O)O)C(=O)O): 2200 M⁻¹ s⁻¹

C[C@@H](CC(=O)O)C(=O)O [(S)-Methylsuccinate]
coupled assay with C. necator itaconate CoA transferase, UHPLC [1]: both MmgE/PrpD proteins catalyzed the isomerization of (S)-methylsuccinate to (R)-methylsuccinate
coupled assay with C. necator itaconate CoA transferase, UHPLC [2]: both MmgE/PrpD proteins catalyzed the isomerization of (S)-methylsuccinate to (R)-methylsuccinate
coupled assay with C. necator itaconate CoA transferase, UHPLC [3]: we tested the isomerase activity of the Pa. xenovorans MmgE/PrpD family protein Bxe_B2582

C[C@H](CC(=O)O)C(=O)O [(R)-Methylsuccinate]
coupled assay with C. necator itaconate CoA transferase, UHPLC [1]: both MmgE/PrpD proteins catalyzed the isomerization of (S)-methylsuccinate to (R)-methylsuccinate
coupled assay with C. necator itaconate CoA transferase, UHPLC [2]: both MmgE/PrpD proteins catalyzed the isomerization of (S)-methylsuccinate to (R)-methylsuccinate
coupled assay with C. necator itaconate CoA transferase, UHPLC [3]: we tested the isomerase activity of the Pa. xenovorans MmgE/PrpD family protein Bxe_B2582

B1: P. aeruginosa methylsuccinyl-C4-CoA dehydrogenase (Pseudomonas aeruginosa PAO1) (protein)
chain: MNPNSEELNAIREGVRALCAEFDAAYWRRIDEQRGFPEAFVKALTDAGWLSAMIPEEYGGSGLGLAEASVILEEVNRCGGNSGTVHGQMYNMFTLLRNGSEAQKRFYLPKLASGELRLQSMGVTEPTTGTDTTKIKTTAVRKGDRYVINGQKVWISRIQHSDLMILLARTTPLAEVKRKSEGMSIFLVDLREAIGKGLTVQPIANMVNHETNELFFDNLEIPADSLIGEEGKGFRYILDGLNAERTLIAAECIGDGRWFIDKASHYARDRVVFGRPIGQNQGVQFPIAEAHIEVEAADLMRWRACQEYDAGLNAGASANMAKYLAAKASWEAANACLQTHGGFGFACEYDVERKFRETRLYQVAPISTNLILSYVAEHLLELPRSF
notes: synthetic codon-optimized gene in pET23a, His-tagged, E. coli BL21(DE3), Ni-NTA purified with FAD in buffers
Km [4]: 0.59 ± 0.14 mM
Vmax [4]: 3.38 µmol/min/mg
kcat/Km [4]: 4100 M⁻¹ s⁻¹
Km [5]: 0.47 ± 0.13 mM
Vmax [5]: 2.8 µmol/min/mg
kcat/Km [5]: 4300 M⁻¹ s⁻¹

B2: C. necator methylsuccinyl-C4-CoA dehydrogenase (Cupriavidus necator H16) (protein)
chain: MHAHQDPDQLYPEIREAVRDLCAGFDSAYWQRVEEQNAFPETFVQALTQAGWLSALIPEAYGGSGLSLTAASVIMEEINRSGGNSGACHGQMYVMGCLLRHGSEAQKQRWLPGIASGELRMQSMAVTEPTTGTDTTKLKTTAVRQGDKYIVNGQKVWISRVQHSDLMLLLARTTPLDQVKRKSEGLSVFVVDLRDAIGKGLTVKPIRNMVNHETNELFFDNLEVPAGNLIGEEGKGLKYILDGLNAERILIAAECIGDGYWFVERASNYARDRIVFDRPIGQNQAVQFPIARSYINVEAASLMRYKASQLFDAGKPCGKEANISKLLAADASWEAANVCLQTHGGFGFAAEYDIERKFRETRLYQVAPISTNLILSYVAEHVLELPRSF
notes: pET23b, His-tagged, E. coli BL21(DE3), Ni-NTA purified with FAD in buffers
Km [6]: 0.36 ± 0.08 mM
Vmax [6]: 0.72 µmol/min/mg
kcat/Km [6]: 1500 M⁻¹ s⁻¹
Km [7]: 0.42 ± 0.14 mM
Vmax [7]: 0.69 µmol/min/mg
kcat/Km [7]: 1200 M⁻¹ s⁻¹

B3: C. necator itaconate CoA transferase (Cupriavidus necator H16) (protein)
chain: MSHSPKGIRPLDGIRVVSLEHAVAAPFATRQLADLGARVIKIERPGVGDFARGYDQSVHGQASYFVWLNRGKESLTLDLKDREAQAILHRLLADADVLVQNLAPGAAVRMGLDFDSLHGKYDKLIVCDISGYGDSGPYRDKKAYDLLIQAAAGLVGLTGGPNEPSRAGVSIADISAGMYAYSGILSALLQRGRTGKGLRVQVTMLEAMAEWMNQVLYFGHYGGKPPGRFGASHPTIAPYGVHRTGNGSVIFSVQNEREFANFCEIVLGNRELAQDERFSSNTARVHNRPELTAIIEERFAPMTVAQAEALLDEAQIANAPMNDIEGVWNHPQLQARQRWREVATPGGPIGALLPPANLSGVEPVMGDVPALGAHSRQILAELGYDDGDIAALADKRTI
notes: pET16b, N-terminal His-tag, E. coli BL21(DE3), Ni-NTA purified
Km (purified protein): 42.8 ± 17.2 mM
Vmax (purified protein): 1.1 µmol/min/mg
kcat/Km (purified protein): 20 M⁻¹ s⁻¹
Km [8]: 4.0 ± 1.7 mM
Vmax [8]: 53.2 µmol/min/mg
kcat/Km [8]: 9500 M⁻¹ s⁻¹
Km [9]: 35.6 ± 3.2 mM
Vmax [9]: 35.6 µmol/min/mg
kcat/Km [9]: 700 M⁻¹ s⁻¹
Km [10]: 37.4 ± 8.9 mM
Vmax [10]: 3.2 µmol/min/mg
kcat/Km [10]: 60 M⁻¹ s⁻¹
Km [11]: 15.6 ± 2.3 mM
Vmax [11]: 10.2 µmol/min/mg
kcat/Km [11]: 500 M⁻¹ s⁻¹
Km [12]: 0.9 ± 0.1 mM
Vmax [12]: 82 µmol/min/mg
kcat/Km [12]: 65200 M⁻¹ s⁻¹
Km [13]: 0.76 ± 0.2 mM
Vmax [13]: 116 µmol/min/mg
kcat/Km [13]: 109000 M⁻¹ s⁻¹
